Laboratory results: the DeepSol protein solubility set

experiment: soluble on expression in E. coli; label from the status in PepcDB or PDB records

| Sequence | soluble on expression in E. coli |
| --- | --- |
| MGSDKIHHHHHHMDALVRASGLRGYPALMRDLGCDPTPLLQRYHLDEGALGSDDAMISLRAVVHLLEASAEQTRTGDLGLRLSRHQSIDVLGPLSIALQNAPTIRAAMDFAARHTFVHSPGLVYAVHKHSEFANDAAEVSIEIRLSRQPAQRQTIDLCLADIHNFTRLLAGDRYLLRAVSVPHTPVVPVSTYERFFGARVWVEQPRASLHLSRSTLAADLLGVDATLRRIAEDYIFRHFGSEQGSVSDRVRQVLRQTLGTSSHSKATVADLLALHPRTMQRRLAAEATSFEAIRDDVRRELAMRYLCETSLPLGQISLLLGLPAQSALSRACRQWYGVPPSALRKHKRAAD | not soluble |
| MTMTMSYKAIEKIPRCSWNREEPGEQWNKIYSVETGLLGTYSFEWQSQVANKTMRKRNTNSICGRQHEPHCPVSITRAIAQPQLLTFPDSLASRGGHMTQSGQCHVSGSLLGRGHKSRGR | soluble |
| MGSDKIHHHHHHMFNTAVKILYRSLIELTNHRLSSYLIKGFCESKISKPVIPLFSKHFRLNWDDVDGTAADYGSLSELFIRQINLERRPVSKEAHAVVSPVDGVVQTVGIINPNQTFTVKGKDYSFAELTGCKSADHQYNGGYFVVLYLSPRHYHRFHSPISCRYQKLAELGNRSYPVNQLGLKYGKDVLSKNYRFVYELNSGSRNVLMIPVGAMNINSIVQTNTRTELEIGEELGYFSFGSTVILVFEKDAFQPSAHLAEGQEVQVGELIGYEE | not soluble |
| MRPIPEGYEAVFETVVTPEMTVRFEELGPVHPVYATYWMVKHMELAGRKIILPFLEEGEEGIGSYVEARHLASALPGMRVRVVARHEKTEGNRVYARVEAYNELGDLIGVGRTEQVILPKAKVEALFRRLKERWEAERSPS | soluble |
| SHEWYAEKPFMLRSFLDRTVLQQAFESPETLTSLGFLESIGITGHNAELDDDRPEKTDALFAEMKKVKETLLTYDDSDLDESQLLSKEIAMYLLDILLVSEPYRYHNYPVNQLFGIQNGYPSFMDAQHQVNSVGDAENYIARLNKVKVKFSQNLEGLKLREEKGILPPRFVIDRVLEEMTAFVAKPAEENILYSSLKAKLSDAEDISPAEQTRLLNLAKEEIIASVHPAYQLLIDYFNQVADKSTTDDGIWKLPDGDKVYAQALKFFTTTDYSAGEIHNIGLHEVDRIQLDILTILEKENYDVSQGFTAAIETLAAQDEFYYPDTKAGREQILTDYQTILDEINAGLESAFRIRPKASMKVRRIPEFKEKTAPGAYYQQPSIDGSRPGMFFANLYDIKATPKYSMRTLAYHEGIPGHHFQIAIAMELEGMPLFRRISPFTAYTEGWALYTERLAWDLGFQDDPFDNIGRLQAELFRAVRLVVDTGIHHKRWTRQEAIDYMVANTGMAHSDVVSEIERYIVMPGQATSYKIGLMKILELRKKAKASLGDKFDLRDFHDVVLKNGAVPLDILTRLVDQYIADKSS | not soluble |
| MGSDKIHHHHHHMLSTVFRRTMATGRHFIAVCQMTSDNDLEKNFQAAKNMIERAGEKKCEMVFLPECFDFIGLNKNEQIDLAMATDCEYMEKYRELARKHNIWLSLGGLHHKDPSDAAHPWNTHLIIDSDGVTRAEYNKLHLFDLEIPGKVRLMESEFSKAGTEMIPPVDTPIGRLGLSICYDVRFPELSLWNRKRGAQLLSFPSAFTLNTGLAHWETLLRARAIENQCYVVAAAQTGAHNPKRQSYGHSMVVDPWGAVVAQCSERVDMCFAEIDLSYVDTLREMQPVFSHRRSDLYTLHINEKSSETGGLKFARFNIPADHIFYSTPHSFVFVNLKPVTDGHVLVSPKRVVPRLTDLTDAETADLFIVAKKVQAMLEKHHNVTSTTICVQDGKDAGQTVPHVHIHILPRRAGDFGDNEIYQKLASHDKEPERKPRSNEQMAEEAVVYRNLM | not soluble |
| STSELDIFVGNTTLIDEDVYRLWLDGYSVTDAVALRVRSGILEQTGATAAVLQSDTMDHYRTFHMLERLLHAPPKLLHQLIFQIPPSRQALLIERYYAFDEAFVREVLGKKLSKGTKKDLDDISTKTGITLKSCRRQFDNFKRVFKVVEEMRGSLVDNIQQHFLLSDRLARDYAAIVFFANNRFETGKKKLQYLSFGDFAFCAELMIQNWTLGAVDSQMDDMDMDLDKEFLQDLKELKVLVADKDLLDLHKSLVCTALRGKLGVFSEMEANFKNLSRGLVNVAAKLTHNKDVRDLFVDLVEKFVEPCRSDHWPLSDVRFFLNQYSASVHSLDGFRHQALWDRYMGTLRGCLLRLYHD | soluble |
| AGFKPAPPAGQLGAVIVDPYGNAPLTALVDLDSHVISDVKVTVHGKGEKGVEISYPVGQESLKTYDGVPIFGLYQKFANKVTVEWKENGKVMKDDYVVHTSAIVNNYMDNRSISDLQQTKVIKVAPGFEDRLYLVNTHTFTAQGSDLHWHGEKDKNAGILDAGPATGALPFDIAPFTFIVDTEGEYRWWLDQDTFYDGRDRDINKRGYLMGIRETPRGTFTAVQGQHWYEFDMMGQVLEDHKLPRGFADATHESIETPNGTVLLRVGKSNYRRDDGVHVTTIRDHILEVDKSGRVVDVWDLTKILDPKRDALLGALDAGAVCVNVDLAHAGQQAKLEPDTPFGDALGVGPGRNWAHVNSIAYDAKDDSIILSSRHQGVVKIGRDKQVKWILAPSKGWEKPLASKLLKPVDANGKPITCNENGLCENSDFDFTYTQHTAWISSKGTLTIFDNGDGRHLEQPALPTMKYSRFVEYKIDEKKGTVQQVWEYGKERGYDFYSPITSIIEYQADRNTMFGFGGSIHLFDVGQPTVGKLNEIDYKTKEVKVEIDVLSDKPNQTHYRALLVRPQQMFK | soluble |
| MSLDRLKQSLLDAPIIEKDGYHYFVHPISDGVPMLEPELLREIVIRIIRKAELDEVDKIVTPAAMGIHISTAVSLMTDIPIVVIRKREYGLPGEVALSQETGYSENEMYINDVHEGDRVLVLDDVLSTGGTLRAITDALEQTGADVADVLAVIKKAGPNELDDTDMDVRTLINVDEGHHHHHH | soluble |
| MSERLEVSIEGEDDFPFDEDNIQELDHFDIGEDEDPEEVAQEDAGVWQERVPLTRQKRKQVLRKPGRKRTGEIIHIPKRQPPRAVRVKSYQQYDAFDELVEQDLDDSDPEVMDDDGEPSTSKTWRIFVRKDGSGMHFDWPIFMDSAVSLKDVVNFISTDASEIPKSLICTSIPQEFTNTGTFIIHLEEGLLKEEICNDGLGTWNSAQMFVRKYVLGVGRARPLMTQKNDHNLKHIFISGFDKDEHMIPYVVICYEWMGQPHPLTVYEDQTEKQAFEQMTWKKCSNPEDQVPILARHGCDYNSAVAILLSSEKCTNYGKSVPQFVQECISFVIDINECGGDRALFLDGNEWQRPSGSHRFFRILYPNQDHGDFDTWNIERASSNFNVTNSDIQIICRRYNGQKYSQSFGFVRKIYLLKILPLCPPEVAEQLHNRDLAVISYSYRNAPHPTFIEQPDRQKLPDGQRVGEEVELVSGDVMFDDDISPEMREMVENMERKKKINSERLMELLQRIHRIDQICKKEAWLESSAEVQQLTQIAQLLHYCQ | not soluble |
| MGSDKIHHHHHHMQKLLSVIPSVDKLIKQLAGIALIQQYGHQAFVAQARQVIDSLRQHILTHQSLPVDQPADNLLSLIATNLQQTQQIAMKKVFNLTGTILHTNLGRAIWSEAAITAASDAMRHHSALEFDIEAGKRSHRDNTISQLLCEITGAEAACVVNNNAAAVLLMLATFAKGKEVIVSRGELVEIGGAFRIPDIMQQAGCKLVEVGTTNRTHLKDYRAAINENTALLMKVHTSNYQIQGFTHSVSEQQLVELGQEVGLPVMSDLGSGSLIDMATFGLPAEPLVQQKVASGVALVTFSADKLLGGPQAGIIVGKKADIEALQAHPLKRVLRCDKVILAGLEATLRHYLLPDQLTTHLPTLSLLTQSIDHLRVKATRLQNSLSKRLDARYHLQIEQSLAQIGSGALPTERLASLAVTITAPTQRDLLQLEQQFKMLKYPIIGRFAEQKLWLDLRSVAQFDQLIEMLEEK | not soluble |
| MKVLKPGLLTTVQDIGRTGYQKYGVLASGAMDTVSLRIANLLIGNGENEAGLEITMMGPGPSFHFSKQTLIAVTGADFTLRINDEEAPLWKPVLIKENSTVSFGPCKLGSRAYLAAAGGIEVPAVMESKSTYVRGSIGGLHGRALQKEDELNIGEMSALSQTILSRLSSQLAHTVIGSTDVVSQPWEISVIEDESRHSSAGGISICLLHSRIKNAFSEEAFRVTPQSDRMGYRLKGEPLDLTAPLEMVSAAVSFGAAQMPPAGKPYYPCLQDRQDDWPAIRGIAHIISADLPIVSQIMPGEHVQFEPVSLQEAEALAVEREQHIKELKTRMKMEWLT | not soluble |
| MEKEKSKTESLKKDEIDEANSESSKVPLAIDPEEAKLPNAGGKSEHMVVNFTSKRMAIKVRCGNALFRVEPTHMIIEPNKCRQLTINRMPGPIQKDKAIVQYLQIENDVQDPKTAFKAADSAGTKIPHLKIKLVAGASGGRQMSREVVDE | not soluble |
| MGSDKIHHHHHHMAKRKKDTMEFRFYELPQGESALVLCGESWKRVYGHDELHLHFHNLLEIGICREGDGNMYLDEDIYQYHDGDITFIPENFPHVTVSYGEVVNFWEYIFIDLRSVIEEMFPNNAAFQNDAVSTISKKAFMTNVYQSPVVAGYINSIIRETNEHKEYSQRTIKLLVQGIVIELLRKYDELPEEDNDVVKGTNMSQIATALDYMNKHYSETIKAGELSSLCNMSETHFRRLFESYINMPPMEYLNLIRVQKACELMKKTNEPMELIAQKCGFTTQSTFNRNFRKFLNTSPYQWKINPENYEHKLLNFRISALKGW | not soluble |
| MQEYSIDITLTHPDDVLALFGSNERHLKLIEAHLGVIVHARTERVQVIGEDEEAVELARLTIKALLVLVGRGMVVNTSDVVTALSMAESHQIDQFMALYEEEIIKDNYGKAIRVKTLGQKTYVDSVKRHDVVFGVGPAGTGKTFLAVTLAVTALKRGQVKRIILTRPAVEAGESLGFLPGDLKEKVDPYLRPVYDALYHILGKEQTTRLMERDVIEIAPLAYMRGRTLDDAFVILDEAQNTTIMQMKMFLTRLGFNSKMIVNGDTSQIDLPRNVKSGLIDATQKLQGIKQIDFVYFSAKDVVRHPVVADIIKAYETSSEEMKDLLKPKASDVEADYQPGLTKYPVIGQEHLEHHHHHH | not soluble |
| MAPVLENRRARHDYEILETYEAGIALKGTEVKSLRAGKVDFTGSFARFEDGELYLENLYIAPYEKGSYANVDPRRKRKLLLHKHELRRLLGKVEQKGLTLVPLKIYFNERGYAKVLLGLARGKKAYEKRREDKKEAVRRALEEL | soluble |
| MKMFQKMCASTVIITTLLGIGGTVNSVHADSIEQQSKLGIDQETDKQIIVKFKADLKFPYEDGIEKQIQSQTNDKVLEDLLVEYPDVTFTRLFTSVSPEEIEDLEVKAPNNVSTSLLNYYILQTQNGEQKEELVDRLKKSCLIEDVYMKKQEKITPPEVQPSSVSLSPNNNPRFKQQGYLEAAPYGINAPFAWEVQGGKGSGITFVDMEYGWLLNHEDLVHQNIELMSGINIDQHVGHGTSVLGIVSSEDNEVGNIGIAPKAKAKVISQIRDNGQYNTADAILSAVNQLEAGDVLLLEAQASFDGYGDKYLPVEVQPDIFDAIRAGTDKGVVIIEAGANGWNDLDQFKDRNGKQILNRNSKDFKDSGAIMVGAGSSSFPHGRMWFSNYGSRIDVYGWGENVDTTTAEQSRSAVNLYTSSFSGTSSASPIIAGAATLVQSIAKENLGQPYRPSELRAILSNENTGTKSKDPYADQIGVLPDLKSILVNLGYGQRKPNGGNELQVTENEPNNERIQANKVNFHTPMKGTLHNSDRVDVFTFQMDSPENITISLLNEQNIGMTWVLHHESDLNNYVAYGENEGNVVKGTYHAKPGKYYLYVYKYENKDGSYVLNIK | not soluble |
